From paper PMC3926959

Target: T1, Ndc1-mTurquoise2 (S. cerevisiae), P32500
T1 chain: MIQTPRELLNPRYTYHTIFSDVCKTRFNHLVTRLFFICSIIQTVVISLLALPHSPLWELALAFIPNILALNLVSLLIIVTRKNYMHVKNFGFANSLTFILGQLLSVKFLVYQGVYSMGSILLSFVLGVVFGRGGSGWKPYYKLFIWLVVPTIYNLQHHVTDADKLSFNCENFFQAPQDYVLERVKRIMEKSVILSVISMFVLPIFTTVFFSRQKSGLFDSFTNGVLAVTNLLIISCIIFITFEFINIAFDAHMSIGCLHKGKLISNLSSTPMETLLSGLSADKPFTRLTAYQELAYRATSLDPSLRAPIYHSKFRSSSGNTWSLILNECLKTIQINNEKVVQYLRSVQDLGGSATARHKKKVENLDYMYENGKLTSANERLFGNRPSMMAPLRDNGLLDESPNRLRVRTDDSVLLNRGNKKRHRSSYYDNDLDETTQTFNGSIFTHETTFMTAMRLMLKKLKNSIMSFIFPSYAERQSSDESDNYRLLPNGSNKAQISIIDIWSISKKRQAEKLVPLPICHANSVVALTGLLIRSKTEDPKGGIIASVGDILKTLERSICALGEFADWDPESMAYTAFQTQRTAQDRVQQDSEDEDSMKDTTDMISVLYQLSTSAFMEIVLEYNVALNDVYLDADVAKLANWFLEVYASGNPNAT
Assay: line-scanning fluorescence cross-correlation spectroscopy
Conditions: remark: other sources report otherwise

B1: Mps3-YFP, P47069 1-682 (natural protein)
chain: MNNSNEHRREEAGAANEQMPYNKAVKSAYADVLKDKMNREQEISLRAIKKGIYTDGGETDNYDMDKENDSAYEMFKKNLDFPLDQHNDDDDDDPYIEDNGQETDGYSDEDYTDEADKSFIEDSDSDSYDLESNSDFEENLESSGEAKKLKWRTYIFYGGLFFVFYFFGSFLMTTVKNNDLESHSSGATSSPGKSFSNLQKQVNHLYSELSKRDEKHSSELDKTVKIIVSQFEKNIKRLLPSNLVNFENDINSLTKQVETISTSMSELQRRNHKFTVENVTQWQDQLVKQLDTHLPQEIPVVINNSSSLLIIPELHNYLSALISDVIESPGIGTAGSAESRWEYDLNRYVKEILSNELQYIDKDYFIQEMNRRLQSNKQEIWEEITNRLETQQQQQQQQVQQDYSNVPQQYSSILMKRLIHQIYNSNQHQWEDDLDFATYVQGTKLLNHLTSPTWRQGSGVQPIELLTDSKQSSSTYWQCENEPGCSWAIRFKTPLYLTKISYMHGRFTNNLHIMNSAPRLISLYVKLSQTKEIKALQTLANQYGFGQHHKRDRNYIKIAKFEYRLTDSRIRQQMYLPPWFIQLKPLVRSIVFQVDENYGNKKFISLRKFIINGVTPQDLQIIENNEFPVLLGDTPEYGVTQNTDEGKRKVLLSKPPYASSSTSTKFHPASNVPSFGQDELDQ
- percent of Ndc1-mTurquoise2 in a complex (FCCS): 2%
